In article PMC6474815:

System: CC(=O)SCCNC(=O)CCNC(=O)[C@H](O)C(C)(C)COP(=O)(O)OP(=O)(O)OC[C@H]1O[C@@H](n2cnc3c(N)ncnc32)[C@H](O)[C@@H]1OP(=O)(O)O
Assay: discontinuous colorimetric DTNB assay
Assay type: biochemical, Pseudomonas aeruginosa
Conditions: 5 mM polymyxin B constant, 50 mM Tris-HCl pH 8.0, 37 °C

Row | Substance | Km | kcat | kcat/Km
1 | PA3944 (tagged) (Pseudomonas aeruginosa PAO1) | 118 ± 28 µM | 0.602 s⁻¹ | 5100 M⁻¹ s⁻¹
2 | PA3944 (cleaved) (Pseudomonas aeruginosa PAO1) | 137 ± 20 µM | 0.61 s⁻¹ | 4450 M⁻¹ s⁻¹
